In the test the target is T1, CD123 R84T ECD (amino acids 19–305), soluble protein (human, UniProt P26951 19-305, R84T, biotinylated (Biotinylation kit Type B) in the IL-3 BLI only).
T1 construct: human CD123 extracellular domain (ECD; amino acids 19–305); source: produced and purified by Icosagen
T1 sequence (looked up): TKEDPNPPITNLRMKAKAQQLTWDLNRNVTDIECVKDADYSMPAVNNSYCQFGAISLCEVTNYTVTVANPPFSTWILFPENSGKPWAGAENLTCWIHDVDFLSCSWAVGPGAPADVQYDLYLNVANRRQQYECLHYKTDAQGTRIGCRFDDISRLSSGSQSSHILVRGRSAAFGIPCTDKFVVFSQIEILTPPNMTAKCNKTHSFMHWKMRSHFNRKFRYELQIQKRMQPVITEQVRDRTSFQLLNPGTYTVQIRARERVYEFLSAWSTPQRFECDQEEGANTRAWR
In words: BLI; biotinylated CD123 ECD wt and variants captured on streptavidin biosensors; IL-3 as analyte, 500 to 7.8 nM in PBS pH7.4; association 300 s; steady-state analysis. As to conditions: both partners purified. (Biolayer interferometry detects binding as a change in optical thickness at a sensor tip.)

B1: IL-3 (ligand, human, UniProt P08700 20-152, looked up)
chain: APMTQTTPLKTSWVNCSNMIDEIITHLKQPPLPLLDFNNLNGEDQDILMENNLRRPNLEAFNRAVKSLQNASAIESILKNLLPCLPLATAAPTRHPIHIKDGDWNEFRRKLTFYLKTLENAQAQQTTLSLAIF
notes: human interleukin-3, recombinant, Sino Biological PN 11858-H08H; also called interleukin-3; human IL-3; source: bought: Sino Biological (PN 11858-H08H)
For the molecule B1, the binding result is given as “binds”.

Values taken from paper PMC10541312 (The Journal of Experimental Medicine, 2023).
